T1: Recombinant Mouse 5′-Nucleotidase/CD73 Protein, CF (R&D Systems Cat: 4488-EN) (mouse, UniProt Q61503 29-549, limits assumed)
T1 construct: Bought protein; also called Mouse CD73-His; recombinant mouse CD73; not shown: His tag
T1 sequence (looked up): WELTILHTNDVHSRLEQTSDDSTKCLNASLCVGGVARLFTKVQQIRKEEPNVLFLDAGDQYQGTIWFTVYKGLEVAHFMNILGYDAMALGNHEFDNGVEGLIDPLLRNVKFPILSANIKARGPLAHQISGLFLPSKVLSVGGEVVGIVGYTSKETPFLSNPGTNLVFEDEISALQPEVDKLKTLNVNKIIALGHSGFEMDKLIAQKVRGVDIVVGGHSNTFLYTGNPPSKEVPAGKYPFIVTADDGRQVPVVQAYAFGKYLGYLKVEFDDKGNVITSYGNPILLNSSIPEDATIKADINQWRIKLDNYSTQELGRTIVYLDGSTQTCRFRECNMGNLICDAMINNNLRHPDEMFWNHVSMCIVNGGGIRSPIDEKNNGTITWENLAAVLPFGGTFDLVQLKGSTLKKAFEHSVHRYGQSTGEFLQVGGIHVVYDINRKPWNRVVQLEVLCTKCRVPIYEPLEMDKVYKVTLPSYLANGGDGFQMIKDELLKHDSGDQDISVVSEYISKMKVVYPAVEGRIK

T2: Recombinant Human 5′-Nucleotidase/CD73 Protein, CF (R&D Systems Cat: 5795-EN) (human, UniProt P21589 27-547)
T2 construct: Bought protein; also called Human CD73-His; recombinant human CD73; not shown: His tag
T2 sequence (looked up): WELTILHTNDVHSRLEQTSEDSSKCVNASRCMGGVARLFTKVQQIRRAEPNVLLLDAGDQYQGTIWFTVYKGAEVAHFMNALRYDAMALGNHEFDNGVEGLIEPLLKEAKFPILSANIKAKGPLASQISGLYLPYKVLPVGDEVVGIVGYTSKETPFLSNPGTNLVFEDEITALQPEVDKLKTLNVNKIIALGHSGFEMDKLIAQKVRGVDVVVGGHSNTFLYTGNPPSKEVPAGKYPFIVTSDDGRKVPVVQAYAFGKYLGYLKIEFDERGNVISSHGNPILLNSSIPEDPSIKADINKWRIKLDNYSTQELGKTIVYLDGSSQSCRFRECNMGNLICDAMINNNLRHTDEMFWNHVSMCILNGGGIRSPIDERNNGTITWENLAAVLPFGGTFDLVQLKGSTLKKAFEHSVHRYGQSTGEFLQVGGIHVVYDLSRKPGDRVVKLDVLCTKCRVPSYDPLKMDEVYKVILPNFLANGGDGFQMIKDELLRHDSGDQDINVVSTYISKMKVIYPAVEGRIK

T3: Cynomolgus CD73/NT5E Protein (His Tag) (Sino Biological Cat: 90192-C08H-50) (cynomolgus monkey, UniProt A0A2K5V5U7 27-547)
T3 construct: treated as one protein; also called Cynomolgus CD73-His; recombinant cynomolgus monkey CD73; not shown: His tag
T3 sequence: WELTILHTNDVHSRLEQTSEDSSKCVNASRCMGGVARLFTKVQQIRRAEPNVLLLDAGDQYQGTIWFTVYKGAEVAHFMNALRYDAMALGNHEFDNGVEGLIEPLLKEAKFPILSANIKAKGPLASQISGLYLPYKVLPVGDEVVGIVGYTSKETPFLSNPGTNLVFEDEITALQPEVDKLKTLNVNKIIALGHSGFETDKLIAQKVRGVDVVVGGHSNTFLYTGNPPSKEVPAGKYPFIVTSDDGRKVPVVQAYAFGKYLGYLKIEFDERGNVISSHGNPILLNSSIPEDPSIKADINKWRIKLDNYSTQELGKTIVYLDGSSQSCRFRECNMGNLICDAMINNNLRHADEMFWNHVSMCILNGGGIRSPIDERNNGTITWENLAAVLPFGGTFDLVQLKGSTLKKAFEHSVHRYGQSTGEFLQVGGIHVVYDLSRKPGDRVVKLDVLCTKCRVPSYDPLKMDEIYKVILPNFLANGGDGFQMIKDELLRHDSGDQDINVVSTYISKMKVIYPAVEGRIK


Columns and labels:
[1] = target: T1, Recombinant Mouse 5′-Nucleotidase/CD73 …; test: ForteBio Octet RED384 (BLI), whole IgG on AHQ sensors, 100 nM antigen, 1:1 model
Description: (§1) Briefly, ForteBio affinity measurements were performed by loading IgGs on-line onto AHQ sensors. Sensors were equilibrated off-line in assay buffer for 30 min and then monitored on-line for 60 seconds for baseline establishment. Sensors with loaded IgGs were exposed to 100 nM antigen for 3 minutes, and afterwards were transferred to assay buffer for 3 min for off-rate measurement. All kinetics were analyzed using the 1:1 binding model. Antigens used were: [0438] Human CD73-His: Recombinant Human 5′-Nucleotidase/CD73 Protein, CF from R&D Systems Cat: 5795-EN [0439] Mouse CD73-His: Recombinant Mouse 5′-Nucleotidase/CD73 Protein, CF from R&D Systems Cat: 4488-EN [0440] Cynomolgus CD73-His: Cynomolgus CD73/NT5E Protein (His Tag) from Sino Biological Cat: 90192-C08H-50

[2] = target: T2, Recombinant Human 5′-Nucleotidase/CD73 …; test: as above
Description: as §1

[3] = target: T1, Recombinant Mouse 5′-Nucleotidase/CD73 …; test: ForteBio Octet RED384 (BLI), whole IgG on AHQ sensors, 1:1 model
Description: as §1

[4] = target: T1, Recombinant Mouse 5′-Nucleotidase/CD73 …; test: restated binding profile (Octet)
[5] = target: T3, Cynomolgus CD73/NT5E Protein (His Tag) …; test: ForteBio Octet RED384 (BLI), whole IgG on AHQ sensors, 100 nM antigen, 1:1 model
Description: as §1

Binder	Kd [1] [nM]	Kd [2] [nM]	binding result [3]	binding result [4]	Kd [5] [nM]
918.C (antibody, V domains shown) VH: QVQLQESGPGLVKPSETLSLTCTVSGGSISSYYWSWIRQPPGKGLEWIGYIYSSGSTNYNPSLKSRVTISVDTSKNQFSLKLSSVTAADTAVYYCARESQESPYNNWFDPWGQGTLVTVSS VL: DIQMTQSPSSVSASVGDRVTITCRASQGISSWLAWYQQKPGKAPKLLIYAASSLQSGVPSRFSGSGSGTDFTLTISSLQPEDFATYYCQQGNSFPRTFGGGTKVEIK	8.88	1.53			
930.C (antibody, V domains shown, also called 930 IgG1 format) VH: not shown VL: EIVLTQSPATLSVSPGERATLSCRASQSVGSNLAWYQQKPGQAPRLLIYGASTRATGIPARFSGSGSGTEFTLTISSLQSEDFAVYYCQQHNAFPYTFGGGTKVEIK		1.83	no binding (tested: 100 nM antigen)		
930 (antibody, V domains shown, also called parental antibody 930; Lineage 3 parent) VH: not shown VL: EIVLTQSPATLSVSPGERATLSCRASQSVGSNLAWYQQKPGQAPRLLIYGASTRATGIPARFSGSGSGTEFTLTISSLQSEDFAVYYCQQHNAFPYTFGGGTKVEIK				no binding	
379.C (antibody, V domains shown, also called 379 IgG1 format) VH: EVQLLESGGGLVQPGGSLRLSCAASGFTFSRYAMSWVRQAPGKGLEWVSSISGTGGSTYYADSVKGRFTISRDNSKNTLYLQMNSLRAEDTAVYYCARGGLYGSGSYLSDFDLWGRGTLVTVSS VL: EIVLTQSPATLSVSPGERATLSCRASQSVGSNLAWYQQKPGQAPRLLIYGASTRATGIPARFSGSGSGTEFTLTISSLQSEDFAVYYCQQHNAFPYTFGGGTKVEIK		0.55	no binding (tested: 100 nM antigen)		1.62
374.C (antibody, V domains shown) VH: EVQLLESGGGLVQPGGSLRLSCAASGFTFSYNAMSWVRQAPGKGLEWVSSISGTGGSTYYADSVKGRFTISRDNSKNTLYLQMNSLRAEDTAVYYCARGGLYGSGSYLSDFDLWGRGTLVTVSS VL: EIVLTQSPATLSVSPGERATLSCRASQSVGSNLAWYQQKPGQAPRLLIYGASTRATGIPARFSGSGSGTEFTLTISSLQSEDFAVYYCQQHNAFPYTFGGGTKVEIK		0.358	no binding (tested: 100 nM antigen)		0.103
376 (antibody, V domains shown, also called progeny antibody 376; Lineage 3 child) VH: EVQLLESGGGLVQPGGSLRLSCAASGFTFRSYAMSWVRQAPGKGLEWVSAITGSGGLTYYADSVKGRFTISRDNSKNTLYLQMNSLRAEDTAVYYCARGGLYGSGSYLSDFDLWGRGTLVTVSS VL: EIVLTQSPATLSVSPGERATLSCRASQSVGSNLAWYQQKPGQAPRLLIYGASTRATGIPARFSGSGSGTEFTLTISSLQSEDFAVYYCQQHNAFPYTFGGGTKVEIK				no binding	
379 (antibody, V domains shown, also called progeny antibody 379; Lineage 3 child) VH: EVQLLESGGGLVQPGGSLRLSCAASGFTFSRYAMSWVRQAPGKGLEWVSSISGTGGSTYYADSVKGRFTISRDNSKNTLYLQMNSLRAEDTAVYYCARGGLYGSGSYLSDFDLWGRGTLVTVSS VL: EIVLTQSPATLSVSPGERATLSCRASQSVGSNLAWYQQKPGQAPRLLIYGASTRATGIPARFSGSGSGTEFTLTISSLQSEDFAVYYCQQHNAFPYTFGGGTKVEIK				no binding	
373.C (antibody, V domains shown) VH: EVQLLESGGGLVQPGGSLRLSCAASGFTFHRYAMSWVRQAPGKGLEWVSAISGSGMNTYYADSVKGRFTISRDNSKNTLYLQMNSLRAEDTAVYYCARGGLYGSGSYLSDFDLWGRGTLVTVSS VL: EIVLTQSPATLSVSPGERATLSCRASQSVGSNLAWYQQKPGQAPRLLIYGASTRATGIPARFSGSGSGTEFTLTISSLQSEDFAVYYCQQHNAFPYTFGGGTKVEIK		0.621	no binding (tested: 100 nM antigen)		0.914
377.C (antibody, V domains shown, also called 377 IgG1 format) VH: EVQLLESGGGLVQPGGSLRLSCAASGFTFKSYAMSWVRQAPGKGLEWVSAISGSGSYTYYADSVKGRFTISRDNSKNTLYLQMNSLRAEDTAVYYCARGGLYGSGSYLSDFDLWGRGTLVTVSS VL: EIVLTQSPATLSVSPGERATLSCRASQSVGSNLAWYQQKPGQAPRLLIYGASTRATGIPARFSGSGSGTEFTLTISSLQSEDFAVYYCQQHNAFPYTFGGGTKVEIK		0.572	no binding (tested: 100 nM antigen)		1.42
376.C (antibody, V domains shown, also called 376 IgG1 format) VH: EVQLLESGGGLVQPGGSLRLSCAASGFTFRSYAMSWVRQAPGKGLEWVSAITGSGGLTYYADSVKGRFTISRDNSKNTLYLQMNSLRAEDTAVYYCARGGLYGSGSYLSDFDLWGRGTLVTVSS VL: EIVLTQSPATLSVSPGERATLSCRASQSVGSNLAWYQQKPGQAPRLLIYGASTRATGIPARFSGSGSGTEFTLTISSLQSEDFAVYYCQQHNAFPYTFGGGTKVEIK		0.301	no binding (tested: 100 nM antigen)		
377 (antibody, V domains shown, also called progeny antibody 377; Lineage 3 child) VH: EVQLLESGGGLVQPGGSLRLSCAASGFTFKSYAMSWVRQAPGKGLEWVSAISGSGSYTYYADSVKGRFTISRDNSKNTLYLQMNSLRAEDTAVYYCARGGLYGSGSYLSDFDLWGRGTLVTVSS VL: EIVLTQSPATLSVSPGERATLSCRASQSVGSNLAWYQQKPGQAPRLLIYGASTRATGIPARFSGSGSGTEFTLTISSLQSEDFAVYYCQQHNAFPYTFGGGTKVEIK				no binding	
373 (antibody, V domains shown, also called Lineage 3 child) VH: EVQLLESGGGLVQPGGSLRLSCAASGFTFHRYAMSWVRQAPGKGLEWVSAISGSGMNTYYADSVKGRFTISRDNSKNTLYLQMNSLRAEDTAVYYCARGGLYGSGSYLSDFDLWGRGTLVTVSS VL: EIVLTQSPATLSVSPGERATLSCRASQSVGSNLAWYQQKPGQAPRLLIYGASTRATGIPARFSGSGSGTEFTLTISSLQSEDFAVYYCQQHNAFPYTFGGGTKVEIK				no binding	
374 (antibody, V domains shown, also called Lineage 3 child) VH: EVQLLESGGGLVQPGGSLRLSCAASGFTFSYNAMSWVRQAPGKGLEWVSSISGTGGSTYYADSVKGRFTISRDNSKNTLYLQMNSLRAEDTAVYYCARGGLYGSGSYLSDFDLWGRGTLVTVSS VL: EIVLTQSPATLSVSPGERATLSCRASQSVGSNLAWYQQKPGQAPRLLIYGASTRATGIPARFSGSGSGTEFTLTISSLQSEDFAVYYCQQHNAFPYTFGGGTKVEIK				no binding	
